Patent US20150166647A1 (VLST, published 2015)

Key:
mouse MIP-1β/CCL4 = target: T1, mouse MIP-1β/CCL4 (mouse, UniProt P14097 24-92); test: MSD electrochemiluminescence, chemokine coated at 1 µg/mL
T1 construct: also called muMIP-1β
T1 sequence: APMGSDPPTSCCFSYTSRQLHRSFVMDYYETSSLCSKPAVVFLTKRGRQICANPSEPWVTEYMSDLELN

mouse MIP-1α/CCL3 = target: T2, mouse MIP-1α/CCL3 (mouse, UniProt P10855 24-92); test: as above
T2 construct: also called muMIP-1α
T2 sequence: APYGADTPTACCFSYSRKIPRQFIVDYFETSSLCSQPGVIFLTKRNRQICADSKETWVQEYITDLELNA

mouse RANTES/CCL5 = target: T3, mouse RANTES/CCL5 (mouse, UniProt P30882 24-91); test: as above
T3 construct: also called muRANTES
T3 sequence (P30882 24-91 limits assumed): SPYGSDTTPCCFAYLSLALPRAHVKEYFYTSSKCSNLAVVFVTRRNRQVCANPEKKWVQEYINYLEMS

MCP-3 = target: T4, MCP-3; test: MSD electrochemiluminescence assay; chemokine coated at 1 µg/mL, 18P7E as unquantitated hybridoma supernatant; background = BSA
T4 construct: also called MCP-3/CCL7; CCL7
T4 sequence (chemokine, as listed by the source): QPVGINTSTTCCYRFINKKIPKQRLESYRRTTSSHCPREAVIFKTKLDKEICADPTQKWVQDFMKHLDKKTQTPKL

ELC = target: T5, ELC; test: as above
T5 construct: also called ELC/MIP-3β/CCL19; CCL19
T5 chemokine: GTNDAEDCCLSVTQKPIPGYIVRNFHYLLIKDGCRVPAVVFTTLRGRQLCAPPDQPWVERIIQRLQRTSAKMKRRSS

I-309 = target: T6, I-309; test: as above
T6 construct: also called I-309/CCL1; CCL1
T6 chemokine: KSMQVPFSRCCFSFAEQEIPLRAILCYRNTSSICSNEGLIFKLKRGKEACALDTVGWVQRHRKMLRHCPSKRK

Eotaxin = target: T7, Eotaxin; test: as above
T7 construct: also called Eotaxin/CCL11; CCL11
T7 sequence (chemokine, as listed by the source): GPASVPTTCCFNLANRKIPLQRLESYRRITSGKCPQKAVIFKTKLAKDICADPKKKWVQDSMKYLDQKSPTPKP

MDC = target: T8, MDC; test: as above
T8 construct: also called MDC/CCL22; CCL22
T8 chemokine: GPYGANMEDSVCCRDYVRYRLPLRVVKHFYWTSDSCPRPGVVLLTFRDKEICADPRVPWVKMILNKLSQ

IL-8 = target: T9, IL-8; test: as above
T9 construct: also called IL-8/CXCL8; CXCL8
T9 sequence (chemokine, as listed by the source): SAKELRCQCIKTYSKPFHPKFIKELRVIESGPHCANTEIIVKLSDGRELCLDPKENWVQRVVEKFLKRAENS

human PARC/CCL18 = target: T10, human PARC/CCL18 (human, UniProt P55774 21-89); test: as above
T10 sequence: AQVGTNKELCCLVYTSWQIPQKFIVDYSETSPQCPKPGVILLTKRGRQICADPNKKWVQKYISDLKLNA

HCC-4 = target: T11, HCC-4; test: as above
T11 construct: also called HCC-4/CCL16; CCL16
T11 chemokine: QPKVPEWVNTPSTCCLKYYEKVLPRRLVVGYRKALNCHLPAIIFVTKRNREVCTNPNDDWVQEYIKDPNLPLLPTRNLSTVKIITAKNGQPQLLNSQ

Fractalkine = target: T12, Fractalkine; test: as above
T12 construct: also called Fractalkine/CX3CL1; CX3CL1
T12 chemokine: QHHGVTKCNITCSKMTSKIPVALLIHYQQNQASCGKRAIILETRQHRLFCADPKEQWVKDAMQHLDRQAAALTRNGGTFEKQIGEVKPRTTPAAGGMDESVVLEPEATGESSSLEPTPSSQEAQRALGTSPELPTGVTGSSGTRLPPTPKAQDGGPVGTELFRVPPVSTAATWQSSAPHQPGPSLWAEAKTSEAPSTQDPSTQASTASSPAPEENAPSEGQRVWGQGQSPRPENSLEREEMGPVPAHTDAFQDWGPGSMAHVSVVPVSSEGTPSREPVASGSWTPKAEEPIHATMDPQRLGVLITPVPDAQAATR

human MCP-1/CCL2 = target: T13, human MCP-1/CCL2 (human, UniProt P13500 24-99); test: as above
T13 construct: also called Biotin-MCP1
T13 sequence (P13500 24-99 limits assumed): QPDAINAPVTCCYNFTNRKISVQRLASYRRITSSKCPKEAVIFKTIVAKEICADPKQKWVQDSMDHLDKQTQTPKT

human HCC-2/MIP-1δ/CCL15 = target: T14, human HCC-2/MIP-1δ/CCL15 (human, UniProt Q16663 46-113); test: as above
T14 sequence: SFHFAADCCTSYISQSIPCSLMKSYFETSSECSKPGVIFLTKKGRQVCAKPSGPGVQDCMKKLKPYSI

SDF = target: T15, SDF; test: as above
T15 construct: also called SDF-1/CXCL12; CXCL12
T15 sequence (chemokine, as listed by the source): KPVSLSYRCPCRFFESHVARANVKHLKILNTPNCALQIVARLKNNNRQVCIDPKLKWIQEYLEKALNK

human HCC-1/CCL14/CCL14a = target: T16, human HCC-1/CCL14/CCL14a (human, UniProt Q16627 28-93); test: as above
T16 sequence: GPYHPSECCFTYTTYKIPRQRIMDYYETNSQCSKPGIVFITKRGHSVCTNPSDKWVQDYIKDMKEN

MCP-4 = target: T17, MCP-4; test: as above
T17 construct: also called MCP-4/CCL13; CCL13
T17 sequence (chemokine, as listed by the source): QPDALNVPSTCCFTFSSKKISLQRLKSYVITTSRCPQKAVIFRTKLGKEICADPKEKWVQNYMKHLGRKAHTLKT

human MPIF-1/CCL23 = target: T18, human MPIF-1/CCL23 (human, UniProt P55773 46-120); test: as above
T18 sequence: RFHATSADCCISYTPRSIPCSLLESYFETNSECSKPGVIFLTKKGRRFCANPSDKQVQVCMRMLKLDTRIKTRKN

MCP-2 = target: T19, MCP-2; test: as above
T19 construct: also called MCP-2/CCL8; CCL8
T19 chemokine: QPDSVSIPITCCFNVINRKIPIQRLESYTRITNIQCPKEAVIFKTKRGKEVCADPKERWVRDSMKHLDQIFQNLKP

B1: monoclonal antibody 18P7E (antibody, V domains shown)
VH: QVQLKESGPGLVAPSQSLSITCTVSGFSLTGYGIHWVRQPPGKGLEWLGVIWPGGGTNYNSALMSRLNISKDNSKSQVFLKMNSLQTDDTAMYYCARGPLITTEVSMDYWGQGTSVTVSS
VL: QAVVTQESALTTSPGETVTLTCRSNTGAVTTSNYANWVQEKPDHLFTGLIGGTNNRAPGVPARFSGSLIGDKAALTITGAQTEDEAIYFCALWYSNHWVFGGGTKLTVLG
notes: also called MAb 18P7E
Q: What does the source list for B1?
A: binding result (mouse MIP-1β/CCL4): no binding (tested: unquantitated hybridoma supernatant); binding result (mouse MIP-1α/CCL3): no binding (tested: unquantitated hybridoma supernatant); binding result (mouse RANTES/CCL5): no binding (tested: unquantitated hybridoma supernatant); binding result (MCP-3): no binding (tested: unquantitated hybridoma supernatant); binding result (ELC): no binding (tested: unquantitated hybridoma supernatant); binding result (I-309): no binding (tested: unquantitated hybridoma supernatant); binding result (Eotaxin): no binding (tested: unquantitated hybridoma supernatant); binding result (MDC): no binding (tested: unquantitated hybridoma supernatant); binding result (IL-8): no binding (tested: unquantitated hybridoma supernatant); binding result (human PARC/CCL18): no binding (tested: unquantitated hybridoma supernatant); binding result (HCC-4): no binding (tested: unquantitated hybridoma supernatant); binding result (Fractalkine): no binding (tested: unquantitated hybridoma supernatant); binding result (human MCP-1/CCL2): no binding (tested: unquantitated hybridoma supernatant); binding result (human HCC-2/MIP-1δ/CCL15): no binding (tested: unquantitated hybridoma supernatant); binding result (SDF): no binding (tested: unquantitated hybridoma supernatant); binding result (human HCC-1/CCL14/CCL14a): no binding (tested: unquantitated hybridoma supernatant); binding result (MCP-4): no binding (tested: unquantitated hybridoma supernatant); binding result (human MPIF-1/CCL23): no binding (tested: unquantitated hybridoma supernatant); binding result (MCP-2): no binding (tested: unquantitated hybridoma supernatant)
